Consider five molecules from patent US20140086913A1 (Gilead, published 2014).

In experiment [1] the target is T1, DDR1ECD-Fc (R&D Systems, Catalog #2396-DR) (human, UniProt Q08345 21-416).
T1 construct: range 21-416; construct as described for the bought immunogen; also called human ECD-DDR1-Fc; Fc-ECD-DR1; not shown: human IgG1, Pro100-Lys330
Briefly: ELISA.

In experiment [2] the target is DDR1 endogenously expressed on human cancer cell lines (T47D, HCT-116, A431) (human) (UniProt Q08345). As to the kind of experiment: cell-based or functional assay.
For experiment [3] the target is unchanged. As to the kind of experiment: flow cytometry, T47D cells.
The target is the same in experiment [4]. As to the kind of experiment: flow cytometry, HCT116 cells. (Flow cytometry measures light scatter and fluorescence of single cells or particles in a stream.)
Experiment [5] deals with human DDR1 (isoform B) stably expressed on HEK293 cells (human) (UniProt Q08345). As to the kind of experiment: flow cytometry, HEK293/hDDR1.
Chain of human DDR1 (isoform B) stably expressed on HEK293 cells (human) (Q08345 19-913): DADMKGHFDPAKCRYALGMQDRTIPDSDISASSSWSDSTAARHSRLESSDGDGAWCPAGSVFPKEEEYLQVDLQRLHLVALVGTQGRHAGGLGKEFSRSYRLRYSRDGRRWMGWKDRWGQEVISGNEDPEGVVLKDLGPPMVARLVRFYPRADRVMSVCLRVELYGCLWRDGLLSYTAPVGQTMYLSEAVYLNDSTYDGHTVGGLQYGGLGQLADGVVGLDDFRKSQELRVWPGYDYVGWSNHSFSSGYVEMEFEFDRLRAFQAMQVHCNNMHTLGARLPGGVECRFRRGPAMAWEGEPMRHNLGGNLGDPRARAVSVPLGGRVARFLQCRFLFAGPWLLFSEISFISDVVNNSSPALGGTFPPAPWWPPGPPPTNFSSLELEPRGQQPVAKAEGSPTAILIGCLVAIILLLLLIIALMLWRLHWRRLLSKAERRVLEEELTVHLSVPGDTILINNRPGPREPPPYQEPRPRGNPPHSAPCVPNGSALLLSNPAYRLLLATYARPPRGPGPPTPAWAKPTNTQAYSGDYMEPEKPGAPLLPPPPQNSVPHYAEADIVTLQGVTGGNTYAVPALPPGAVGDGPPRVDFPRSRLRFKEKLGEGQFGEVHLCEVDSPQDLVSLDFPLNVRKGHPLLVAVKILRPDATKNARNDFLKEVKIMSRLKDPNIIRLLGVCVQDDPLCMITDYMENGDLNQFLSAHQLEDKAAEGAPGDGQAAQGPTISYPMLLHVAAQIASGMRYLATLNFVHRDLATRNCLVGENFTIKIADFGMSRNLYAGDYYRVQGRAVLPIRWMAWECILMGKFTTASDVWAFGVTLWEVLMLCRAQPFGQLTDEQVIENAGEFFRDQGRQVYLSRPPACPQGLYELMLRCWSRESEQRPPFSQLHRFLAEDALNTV
The target in experiment [6] is T2, mouse ECD-DDR1-Fc (mouse; human, UniProt Q03146 22-414).
T2 construct: also called mouse DDR1-ECD; wild-type mouse DDR1-ECD; not shown: human IgG1 Fc of the vector pFuse-hIgG1-Fc1 (Invivogen)
T2 sequence: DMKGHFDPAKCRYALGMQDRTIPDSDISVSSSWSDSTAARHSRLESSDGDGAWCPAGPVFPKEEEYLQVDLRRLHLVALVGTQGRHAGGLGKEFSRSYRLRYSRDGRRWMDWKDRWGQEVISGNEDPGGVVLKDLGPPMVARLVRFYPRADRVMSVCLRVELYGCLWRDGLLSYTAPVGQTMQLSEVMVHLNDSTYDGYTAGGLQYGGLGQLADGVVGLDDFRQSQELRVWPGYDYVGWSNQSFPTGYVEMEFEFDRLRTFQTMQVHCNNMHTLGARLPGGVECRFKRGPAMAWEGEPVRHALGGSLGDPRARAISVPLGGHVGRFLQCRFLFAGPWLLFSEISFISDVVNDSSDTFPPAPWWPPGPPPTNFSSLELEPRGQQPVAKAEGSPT
Briefly: ELISA, coated antigen. The method, then:
(§1) In this study, ELISA was used to determine the affinity of murine anti-DDR1 monoclonal antibodies to the extracellular domain (ECD) of either human or murine DDR1. A 96-well MaxiSorb ELISA plates (Nunc) were coated with 2 μg/mL of one of three purified recombinant tagged proteins: human ECD-DDR1-His protein, human ECD-DDR1-Fc, or mouse ECD-DDR1-Fc overnight at 4° C. The next day, the plates were blocked with 5% bovine serum albumin (BSA, Jackson Immunoresearch) prior to the addition of serially diluted anti-DDR1 monoclonal antibodies. Antibodies were incubated for 1 hr at room temperature. The binding of antibody to the antigen was detected by incubating samples with anti-mouse IgG-HRP (horse radish peroxidase) secondary detection antibody (Jackson Immunoresearch) for 1 hr. After a washing step, 3,3′,5,5″-tetramethylbenzidine (TMB) reagent was added for HRP to produce a colorimetric signal. The reaction was stopped by addition of 1M hydrochloric acid after 2 minutes and measured for absorbance (optical density, OD) at 450λ on a Molecular Devices plate reader. The OD values were plotted against antibody concentration and fitted using a using 4-parameter logistic equation in SoftMax software (Molecular Devices). The apparent affinity constant (KD) was taken from the C-parameter of the equation (y=(A−D)/(1+(x/C)̂B)+D). The apparent affinity constants were summarized (in some cases shown as average values) in Table 10 below. Lower value indicates higher binding affinity of the antibody to the antigen.

Experiment [7] addresses T3, human DDR2 stably expressed on HEK293 cells (human, UniProt Q16832 22-855).
T3 construct: whole, on cells; also called hDDR2
T3 sequence (looked up): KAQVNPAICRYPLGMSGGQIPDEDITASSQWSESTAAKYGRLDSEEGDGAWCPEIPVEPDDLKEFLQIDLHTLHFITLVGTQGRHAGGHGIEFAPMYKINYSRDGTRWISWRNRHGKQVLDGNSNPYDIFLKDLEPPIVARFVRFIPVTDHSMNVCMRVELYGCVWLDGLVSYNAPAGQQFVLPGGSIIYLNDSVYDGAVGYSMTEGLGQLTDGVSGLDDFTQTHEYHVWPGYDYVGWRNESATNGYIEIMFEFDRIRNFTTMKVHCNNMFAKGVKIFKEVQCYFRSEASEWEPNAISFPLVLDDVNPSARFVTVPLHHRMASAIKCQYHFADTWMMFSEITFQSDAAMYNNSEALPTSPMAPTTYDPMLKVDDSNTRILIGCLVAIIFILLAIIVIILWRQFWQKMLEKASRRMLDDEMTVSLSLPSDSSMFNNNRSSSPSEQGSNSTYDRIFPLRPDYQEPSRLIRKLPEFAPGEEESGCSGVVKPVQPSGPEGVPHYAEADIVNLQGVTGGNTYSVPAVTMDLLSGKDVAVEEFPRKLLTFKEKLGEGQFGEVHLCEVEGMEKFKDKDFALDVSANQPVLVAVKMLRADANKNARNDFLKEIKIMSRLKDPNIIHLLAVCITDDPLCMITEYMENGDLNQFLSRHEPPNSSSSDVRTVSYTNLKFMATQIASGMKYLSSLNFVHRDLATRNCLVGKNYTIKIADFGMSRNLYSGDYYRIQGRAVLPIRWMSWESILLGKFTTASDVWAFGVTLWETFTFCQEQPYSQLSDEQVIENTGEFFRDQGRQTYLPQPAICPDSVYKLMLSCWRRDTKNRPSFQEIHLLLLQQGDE
Briefly: flow cytometry, HEK293/hDDR2. Here is the method: Additional monoclonal antibodies were obtained from individual hybridomas in Example 1 and were characterized for their properties.
Cells were cultured in DMEM with 10% FBS and 0.8 mg/mL hygromycin. When cells reached 60-80% confluence, they were centrifuged at 1,200 rpm for 5 minutes, suspended in FACS buffer (1×PBS, 1% BSA), and aliquoted into a 96-well plate at 1×10⁶ cells per well. The anti-DDR1 monoclonal antibodies or appropriate isotype controls at 2 μg per 1×10⁶ cells were added and incubated at 4° C. for 1 hr. The cells were washed twice with FACS buffer then stained with the anti-IgG-PE secondary antibody at 10 μL per well at 4° C. for 1 hr. The cells were washed again and measured for the MFI values or signals using flow cytometry (LSR Fortessa instrument, BD Biosciences). Background MFI signals from vector-only cells (i.e. no DDR1 or DDR2 expression) was subtracted from those of the cells treated with antibodies. Higher MFI values or signals indicated increased binding or specificity of the anti-DDR1 antibodies to the DDR1 on the cell surface.

For experiment [8], the target named is T1, DDR1ECD-Fc (R&D Systems, Catalog …). Briefly: ELISA, coated antigen, apparent KD. The method, then: as §1
Background: An ELISA detects its analyte on a solid surface through an enzyme-linked reagent.

The target of experiment [9] is T4, human ECD-DDR1-His protein (human, UniProt Q08345 21-416).
T4 construct: also called huDDR1-ECD-His; DDR1ECD-6Xhis; not shown: His tag
Briefly: ELISA, coated antigen, apparent KD. The method, then:
as §1

The target in experiment [10] is human DDR1 (isoform B) stably expressed on HEK293 cells (human) (UniProt Q08345). Briefly: flow cytometry, HEK293/human DDR1, normalized to empty-vector cells.
In experiment [11] the target is DDR1 endogenously expressed on human cancer cell lines (T47D, HCT-116, A431) (human) (UniProt Q08345). Briefly: cell-based or functional assay. The source holds these as a separate data set.
Experiment [12] addresses DDR1 with a ProLink Tag (PK) in engineered U20S cells (DiscoveRx), Q08345. As to the kind of experiment: cell-based or functional assay.
Experiment [13] deals with T2, mouse ECD-DDR1-Fc. Briefly: ELISA, coated antigen, apparent KD. Here is the method: as §1

Like-named read-outs stand apart in the source and are kept apart here.

B1: AB2079 (antibody, V domains shown)
VH: EVMLVESGGGLVKPGGSLKLSCAASGFTFSNYAMSWVRQTPEKRLEWVAKTSSGDTYTYYPDSVKGRFTISRDNAKNTLYLQMTSLRSEDTAIYYCARQDYYGITPWFFDVWGAGTTVTVSS
VL: ENVLTQSPAIMSASPGEKVTMTCRASSSVSSIYLHWYQQKSGASPKLWIYSTSNLASGVPARFSGSGSGTSYSLTITSVEAEDAATYYCQQYSGYPLITFGAGTKLELKR
notes: mouse hybridoma mAb
Turning to B1, the Kd was 0.088 nM in experiment [1], 0.0883 nM in experiment [8] and 0.07 nM in experiment [9]. Further, the EC50, DDR1 phospho-specific ELISA (T47D) in [2] amounted to 0.13 nM. Also, the NPI of cluster formation at 66 nM (A431 cells) in experiment [2] is 0.5%. Besides, the MFI in experiment [3] was found to be 6130 MFI; in experiment [4], 1730 MFI; in experiment [5], 14300 MFI; in experiment [7], 326 MFI; in experiment [10] it was 14300 MFI. Besides, in experiment [6], the binding result is “no binding”.

B2: AB2034 (antibody, V domains shown)
VH: QVQLKESGPGLVAPSQSLSITCTVSGFSLTSYHIHWVRQPPGKGLEWLVVIWSDGSTTYNSALKSRLSISKDNSKSQVFLKMNSLQTDDTAIYYCARTGNFYAMDYWGQGTSVTVSS
VL: SIVMTQTPKFLLVSAGDRVTITCKASQSVSNDVVWYQQKPGQSPKLLIYYASSRYTGVPDRFTGSGYGTDFTFTISTVQAEDLAVYFCQQDYSSPYTFGGGTKLEIR
notes: mouse hybridoma mAb
B2 gave an EC50, DDR1 phospho-specific ELISA (T47D) in experiment [11] of 0.63 nM. For the same molecule, the EC50, cluster formation assay (A431 cells) in experiment [11] is 7.87 nM. The molecule also returned a Maximal inhibition, DDR1 phospho-specific ELISA (T47D) in [11] of 100%. The NPI of cluster formation at 66 nM (A431 cells) in experiment [11] came to 119%. In addition, the MFI in experiment [3] was determined as 4370 MFI; in [4], 1060 MFI; in [5], 11400 MFI; in experiment [7] it was 175 MFI. Also, the binding result in experiment [6] was “no binding”. Further, the Mean EC50, DDR1 Tyr513 phosphorylation assay (U20S) in experiment [12] is 5.2 nM. For the same molecule, the Kd in experiment [8] came out at 0.256 nM; in experiment [9] it was 0.311 nM.

B3: AB2021 (antibody, V domains shown)
VH: EVKLVESGGGLVKPGGSLNLSCAASGFTFSNYAMSWSRQTPEKRLEWVASISSGGNTYYPDSVRGRFTISRDNARNILYLQMSSLRSEDTAMYYCAREPGTYNWYFDVWGAGTTVTVSS
VL: DIVMTQSQKFMSTSVGDRVSVTCKASQNVGTNVAWYQQKPGQSLKALIYSASYRFSGVPDRFTGSGYGTDFTLTISNVQSEDLAEYFCQQCNSYPLTFGAGTKLELKR
notes: mouse hybridoma mAb
As for B3, the EC50, DDR1 phospho-specific ELISA (T47D) in [11] is 2.26 nM. The EC50, cluster formation assay (A431 cells) in experiment [11] worked out at 18.5 nM. Further, the Maximal inhibition, DDR1 phospho-specific ELISA (T47D) in experiment [11] is 100%. Also, the NPI of cluster formation at 66 nM (A431 cells) in experiment [11] came to 106%. In addition, the MFI in experiment [3] was 5010 MFI; in experiment [4], 1390 MFI; in experiment [5] it was 15800 MFI; in experiment [7], 92 MFI. In experiment [6], the binding result is recorded as “no binding”. Moreover, the Mean EC50, DDR1 Tyr513 phosphorylation assay (U20S) in experiment [12] came to 7.71 nM. Besides, the Kd in experiment [8] is 0.252 nM; in [9], 0.153 nM.

B4: AB2009 (antibody, V domains shown)
VH: EVQLVESGGGLVQPGGSLKFSCAASGFTFSSYGMSWVRQTPDKRLELVAIINSHGFSTYYPDSVKGRFTISRDNAKNTLYLQMSSLKSEDTAIYYCARGGYGNYGMDYWGQGTSVTVSS
VL: DIVLTQSPASLAVSLGQRATISCRASESVDSYGNSFMHWYQQKVGQPPKLLIFRASNIESGIPARFSGSGSRTDFTLTINSVEADDVATYYCQQSNEAPYTFGGGTKLEIKR
notes: mouse hybridoma mAb
With B4, the Kd came out at 0.257 nM in [1], 0.257 nM in experiment [8], 0.197 nM in [9] and 6.93 nM in experiment [13]. The molecule further yielded an EC50, DDR1 phospho-specific ELISA (T47D) in [2] of 0.47 nM. The same molecule came in with an EC50, cluster formation assay (A431 cells) in [2] of 0.43 nM. Also, the Maximal inhibition, DDR1 phospho-specific ELISA (T47D) in experiment [2] turned out to be 100%. For the same molecule, the NPI of cluster formation at 66 nM (A431 cells) in [2] came to 127%. Moreover, the MFI in [3] is 5930 MFI; in experiment [4] it was 1480 MFI; in experiment [5] it was 11900 MFI; in experiment [7] it was 277 MFI; in experiment [10], 11900 MFI. Moreover, in experiment [12], the Mean EC50, DDR1 Tyr513 phosphorylation assay (U20S) came to 1.5 nM.

B5: AB2029 (antibody, V domains shown)
VH: QVLLRQSGPGLVQPSQSLSITCTVSGFSLTTYGVHWVRQSPGKGLEWLGVIWSGGSTDYNAAFISRLTISKDNSKSQVFFKMNSLQANDTAIYYCARYYSGSSLYFAMDYWGQGTSVTVSS
VL: NIVMTQTPKFLLVSAGDTVTITCKASQSVSNDVAWYQQKPGQSPKLLIYYASNRYTGVPDRFTGSGFGTDFTFTISTVQTEDLAVYFCQQDYSSLTFGAGTKLELKR
notes: mouse hybridoma mAb
As for B5, the EC50, DDR1 phospho-specific ELISA (T47D) in experiment [11] stood at 0.55 nM. For the same molecule, the Maximal inhibition, DDR1 phospho-specific ELISA (T47D) in experiment [11] came to 100%. Moreover, in [11], the NPI of cluster formation at 66 nM (A431 cells) came to 100%. Moreover, the MFI in [3] came to 3560 MFI; in experiment [4], 1010 MFI; in [5], 11700 MFI; in experiment [7], 263 MFI. Moreover, the binding result in [6] is “no binding”. The molecule also gave a Mean EC50, DDR1 Tyr513 phosphorylation assay (U20S) in experiment [12] of 4.9 nM. Also, the Kd in experiment [8] turned out to be 0.302 nM; in [9], 0.397 nM.
